The text below walks through data of IntAct's records for PubMed 17679699.

First the molecules themselves.
B1: Catenin beta-1 (Homo sapiens), P35222 (parent)
chain: MATQADLMELDMAMEPDRKAAVSHWQQQSYLDSGIHSGATTTAPSLSGKGNPEEEDVDTSQVLYEWEQGFSQSFTQEQVADIDGQYAMTRAQRVRAAMFPETLDEGMQIPSTQFDAAHPTNVQRLAEPSQMLKHAVVNLINYQDDAELATRAIPELTKLLNDEDQVVVNKAAVMVHQLSKKEASRHAIMRSPQMVSAIVRTMQNTNDVETARCTAGTLHNLSHHREGLLAIFKSGGIPALVKMLGSPVDSVLFYAITTLHNLLLHQEGAKMAVRLAGGLQKMVALLNKTNVKFLAITTDCLQILAYGNQESKLIILASGGPQALVNIMRTYTYEKLLWTTSRVLKVLSVCSSNKPAIVEAGGMQALGLHLTDPSQRLVQNCLWTLRNLSDAATKQEGMEGLLGTLVQLLGSDDINVVTCAAGILSNLTCNNYKNKMMVCQVGGIEALVRTVLRAGDREDITEPAICALRHLTSRHQEAEMAQNAVRLHYGLPVVVKLLHPPSHWPLIKATVGLIRNLALCPANHAPLREQGAIPRLVQLLVRAHQDTQRRTSMGGTQQQFVEGVRMEEIVEGCTGALHILARDVHNRIVIRGLNTIPLFVQLLYSPIENIQRVAAGVLCELAQDKEAAEAIEAEGATAPLTELLHSRNEGVATYAAAVLFRMSEDKPQDYKKRLSVELTSSLFRTEPMAWNETADLGLDIGAQGEPLGYRQDDPSYRSFHSGGYGQDALGMDPMMEHEMGGHHPGADYPVDGLPDLGHAQDLMDGLPPGDSNQLAWFDTDL
partner: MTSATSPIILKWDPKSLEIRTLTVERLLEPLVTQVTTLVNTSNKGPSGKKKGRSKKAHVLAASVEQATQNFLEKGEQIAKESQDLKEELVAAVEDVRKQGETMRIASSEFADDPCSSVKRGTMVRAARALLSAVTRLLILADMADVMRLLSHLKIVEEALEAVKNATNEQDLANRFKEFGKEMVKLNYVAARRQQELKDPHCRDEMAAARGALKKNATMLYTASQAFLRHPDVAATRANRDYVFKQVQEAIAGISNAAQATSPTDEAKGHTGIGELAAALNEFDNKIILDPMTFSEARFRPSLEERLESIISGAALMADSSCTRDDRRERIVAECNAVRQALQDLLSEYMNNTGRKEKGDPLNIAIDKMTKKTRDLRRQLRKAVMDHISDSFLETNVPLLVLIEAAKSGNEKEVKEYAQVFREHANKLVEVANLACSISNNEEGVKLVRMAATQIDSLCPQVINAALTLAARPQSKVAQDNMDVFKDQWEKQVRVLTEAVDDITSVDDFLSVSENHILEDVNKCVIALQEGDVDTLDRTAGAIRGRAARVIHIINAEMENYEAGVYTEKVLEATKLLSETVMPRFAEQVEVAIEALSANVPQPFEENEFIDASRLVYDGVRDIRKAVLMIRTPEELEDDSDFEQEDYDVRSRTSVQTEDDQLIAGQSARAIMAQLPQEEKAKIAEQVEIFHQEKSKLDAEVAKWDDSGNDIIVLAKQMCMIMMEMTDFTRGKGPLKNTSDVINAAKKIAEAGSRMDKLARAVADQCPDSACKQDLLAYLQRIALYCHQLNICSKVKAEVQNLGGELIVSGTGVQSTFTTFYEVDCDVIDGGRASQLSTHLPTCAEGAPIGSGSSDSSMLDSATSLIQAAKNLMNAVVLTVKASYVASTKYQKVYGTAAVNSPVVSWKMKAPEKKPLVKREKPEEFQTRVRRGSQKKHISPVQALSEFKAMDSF

The assay covers variants of B1. Conditions: with ctna2_human CTNNA2, P26232.
Turning to L132A, the “effect of a mutation on the interaction” value is on record as “disrupting interaction strength”.
